# Results as given in patent publication US20110118131A1 (published 2011).
# Molecular target: T1, IL-1beta (UniProt P01584 117-269)
# T1 construct: also called IL-1β
# Assay: Biacore
binding result,fold difference in affinity vs parental,Binder
no binding,,"XPA23 Fab, heavy chain F35E (Fab, V domains shown) VH: EVQLLESGGGLVQPGGSLRLSCAASGFTFSKYFMEWVRQAPGKGLEWVSVISPSGGMTRYADSVKGRFTISRDNSKNTLYLQMNSLRAEDTAVYYCARVGYGGNSDYWGQGTLVTVSS VL: DIQMTQSPSSVSASVGDRLTIICRASQDINRWLAWYQQTPGNAPKLLIHSATSLQSGVPSRFSGSGSGTDFTLTINSLQPEDFATYYCQQADSFPLTFGGGTKVEIK"
,1.21 fold,"XPA23 Fab, heavy chain G56E (Fab, V domains shown) VH: EVQLLESGGGLVQPGGSLRLSCAASGFTFSKYFMFWVRQAPGKGLEWVSVISPSGEMTRYADSVKGRFTISRDNSKNTLYLQMNSLRAEDTAVYYCARVGYGGNSDYWGQGTLVTVSS VL: DIQMTQSPSSVSASVGDRLTIICRASQDINRWLAWYQQTPGNAPKLLIHSATSLQSGVPSRFSGSGSGTDFTLTINSLQPEDFATYYCQQADSFPLTFGGGTKVEIK"
,0.68 fold,"XPA23 Fab, heavy chain F35K (Fab, V domains shown) VH: EVQLLESGGGLVQPGGSLRLSCAASGFTFSKYFMKWVRQAPGKGLEWVSVISPSGGMTRYADSVKGRFTISRDNSKNTLYLQMNSLRAEDTAVYYCARVGYGGNSDYWGQGTLVTVSS VL: DIQMTQSPSSVSASVGDRLTIICRASQDINRWLAWYQQTPGNAPKLLIHSATSLQSGVPSRFSGSGSGTDFTLTINSLQPEDFATYYCQQADSFPLTFGGGTKVEIK"
,0.11 fold,"XPA23 Fab, heavy chain G55E (Fab, V domains shown) VH: EVQLLESGGGLVQPGGSLRLSCAASGFTFSKYFMFWVRQAPGKGLEWVSVISPSEGMTRYADSVKGRFTISRDNSKNTLYLQMNSLRAEDTAVYYCARVGYGGNSDYWGQGTLVTVSS VL: DIQMTQSPSSVSASVGDRLTIICRASQDINRWLAWYQQTPGNAPKLLIHSATSLQSGVPSRFSGSGSGTDFTLTINSLQPEDFATYYCQQADSFPLTFGGGTKVEIK"
no binding,,"XPA23 Fab, heavy chain F35R (Fab, V domains shown) VH: EVQLLESGGGLVQPGGSLRLSCAASGFTFSKYFMRWVRQAPGKGLEWVSVISPSGGMTRYADSVKGRFTISRDNSKNTLYLQMNSLRAEDTAVYYCARVGYGGNSDYWGQGTLVTVSS VL: DIQMTQSPSSVSASVGDRLTIICRASQDINRWLAWYQQTPGNAPKLLIHSATSLQSGVPSRFSGSGSGTDFTLTINSLQPEDFATYYCQQADSFPLTFGGGTKVEIK"
no binding,,"XPA23 Fab, heavy chain G55D (Fab, V domains shown) VH: EVQLLESGGGLVQPGGSLRLSCAASGFTFSKYFMFWVRQAPGKGLEWVSVISPSDGMTRYADSVKGRFTISRDNSKNTLYLQMNSLRAEDTAVYYCARVGYGGNSDYWGQGTLVTVSS VL: DIQMTQSPSSVSASVGDRLTIICRASQDINRWLAWYQQTPGNAPKLLIHSATSLQSGVPSRFSGSGSGTDFTLTINSLQPEDFATYYCQQADSFPLTFGGGTKVEIK"
,0.11 fold,"XPA23 Fab, heavy chain G55K (Fab, V domains shown) VH: EVQLLESGGGLVQPGGSLRLSCAASGFTFSKYFMFWVRQAPGKGLEWVSVISPSKGMTRYADSVKGRFTISRDNSKNTLYLQMNSLRAEDTAVYYCARVGYGGNSDYWGQGTLVTVSS VL: DIQMTQSPSSVSASVGDRLTIICRASQDINRWLAWYQQTPGNAPKLLIHSATSLQSGVPSRFSGSGSGTDFTLTINSLQPEDFATYYCQQADSFPLTFGGGTKVEIK"
,0.86 fold,"XPA23 Fab, heavy chain F35N (Fab, V domains shown) VH: EVQLLESGGGLVQPGGSLRLSCAASGFTFSKYFMNWVRQAPGKGLEWVSVISPSGGMTRYADSVKGRFTISRDNSKNTLYLQMNSLRAEDTAVYYCARVGYGGNSDYWGQGTLVTVSS VL: DIQMTQSPSSVSASVGDRLTIICRASQDINRWLAWYQQTPGNAPKLLIHSATSLQSGVPSRFSGSGSGTDFTLTINSLQPEDFATYYCQQADSFPLTFGGGTKVEIK"
,0.82 fold,"XPA23 Fab, heavy chain G56H (Fab, V domains shown) VH: EVQLLESGGGLVQPGGSLRLSCAASGFTFSKYFMFWVRQAPGKGLEWVSVISPSGHMTRYADSVKGRFTISRDNSKNTLYLQMNSLRAEDTAVYYCARVGYGGNSDYWGQGTLVTVSS VL: DIQMTQSPSSVSASVGDRLTIICRASQDINRWLAWYQQTPGNAPKLLIHSATSLQSGVPSRFSGSGSGTDFTLTINSLQPEDFATYYCQQADSFPLTFGGGTKVEIK"
,0.09 fold,"XPA23 Fab, heavy chain F35S (Fab, V domains shown) VH: EVQLLESGGGLVQPGGSLRLSCAASGFTFSKYFMSWVRQAPGKGLEWVSVISPSGGMTRYADSVKGRFTISRDNSKNTLYLQMNSLRAEDTAVYYCARVGYGGNSDYWGQGTLVTVSS VL: DIQMTQSPSSVSASVGDRLTIICRASQDINRWLAWYQQTPGNAPKLLIHSATSLQSGVPSRFSGSGSGTDFTLTINSLQPEDFATYYCQQADSFPLTFGGGTKVEIK"
no binding,,"XPA23 Fab, heavy chain F35W (Fab, V domains shown) VH: EVQLLESGGGLVQPGGSLRLSCAASGFTFSKYFMWWVRQAPGKGLEWVSVISPSGGMTRYADSVKGRFTISRDNSKNTLYLQMNSLRAEDTAVYYCARVGYGGNSDYWGQGTLVTVSS VL: DIQMTQSPSSVSASVGDRLTIICRASQDINRWLAWYQQTPGNAPKLLIHSATSLQSGVPSRFSGSGSGTDFTLTINSLQPEDFATYYCQQADSFPLTFGGGTKVEIK"
,0.95 fold,"XPA23 Fab, heavy chain G55R (Fab, V domains shown) VH: EVQLLESGGGLVQPGGSLRLSCAASGFTFSKYFMFWVRQAPGKGLEWVSVISPSRGMTRYADSVKGRFTISRDNSKNTLYLQMNSLRAEDTAVYYCARVGYGGNSDYWGQGTLVTVSS VL: DIQMTQSPSSVSASVGDRLTIICRASQDINRWLAWYQQTPGNAPKLLIHSATSLQSGVPSRFSGSGSGTDFTLTINSLQPEDFATYYCQQADSFPLTFGGGTKVEIK"
,1.02 fold,"XPA23 Fab, heavy chain G55S (Fab, V domains shown) VH: EVQLLESGGGLVQPGGSLRLSCAASGFTFSKYFMFWVRQAPGKGLEWVSVISPSSGMTRYADSVKGRFTISRDNSKNTLYLQMNSLRAEDTAVYYCARVGYGGNSDYWGQGTLVTVSS VL: DIQMTQSPSSVSASVGDRLTIICRASQDINRWLAWYQQTPGNAPKLLIHSATSLQSGVPSRFSGSGSGTDFTLTINSLQPEDFATYYCQQADSFPLTFGGGTKVEIK"
,2.05 fold,"XPA23 Fab, heavy chain G56K (Fab, V domains shown) VH: EVQLLESGGGLVQPGGSLRLSCAASGFTFSKYFMFWVRQAPGKGLEWVSVISPSGKMTRYADSVKGRFTISRDNSKNTLYLQMNSLRAEDTAVYYCARVGYGGNSDYWGQGTLVTVSS VL: DIQMTQSPSSVSASVGDRLTIICRASQDINRWLAWYQQTPGNAPKLLIHSATSLQSGVPSRFSGSGSGTDFTLTINSLQPEDFATYYCQQADSFPLTFGGGTKVEIK"
,0.85 fold,"XPA23 Fab, heavy chain F35Y (Fab, V domains shown) VH: EVQLLESGGGLVQPGGSLRLSCAASGFTFSKYFMYWVRQAPGKGLEWVSVISPSGGMTRYADSVKGRFTISRDNSKNTLYLQMNSLRAEDTAVYYCARVGYGGNSDYWGQGTLVTVSS VL: DIQMTQSPSSVSASVGDRLTIICRASQDINRWLAWYQQTPGNAPKLLIHSATSLQSGVPSRFSGSGSGTDFTLTINSLQPEDFATYYCQQADSFPLTFGGGTKVEIK"
,0.9 fold,"XPA23 Fab, heavy chain G55Q (Fab, V domains shown) VH: EVQLLESGGGLVQPGGSLRLSCAASGFTFSKYFMFWVRQAPGKGLEWVSVISPSQGMTRYADSVKGRFTISRDNSKNTLYLQMNSLRAEDTAVYYCARVGYGGNSDYWGQGTLVTVSS VL: DIQMTQSPSSVSASVGDRLTIICRASQDINRWLAWYQQTPGNAPKLLIHSATSLQSGVPSRFSGSGSGTDFTLTINSLQPEDFATYYCQQADSFPLTFGGGTKVEIK"
no binding,,"XPA23 Fab, heavy chain F35H (Fab, V domains shown) VH: EVQLLESGGGLVQPGGSLRLSCAASGFTFSKYFMHWVRQAPGKGLEWVSVISPSGGMTRYADSVKGRFTISRDNSKNTLYLQMNSLRAEDTAVYYCARVGYGGNSDYWGQGTLVTVSS VL: DIQMTQSPSSVSASVGDRLTIICRASQDINRWLAWYQQTPGNAPKLLIHSATSLQSGVPSRFSGSGSGTDFTLTINSLQPEDFATYYCQQADSFPLTFGGGTKVEIK"
,0.05 fold,"XPA23 Fab, heavy chain G56D (Fab, V domains shown) VH: EVQLLESGGGLVQPGGSLRLSCAASGFTFSKYFMFWVRQAPGKGLEWVSVISPSGDMTRYADSVKGRFTISRDNSKNTLYLQMNSLRAEDTAVYYCARVGYGGNSDYWGQGTLVTVSS VL: DIQMTQSPSSVSASVGDRLTIICRASQDINRWLAWYQQTPGNAPKLLIHSATSLQSGVPSRFSGSGSGTDFTLTINSLQPEDFATYYCQQADSFPLTFGGGTKVEIK"
,0.1 fold,"XPA23 Fab, heavy chain G55N (Fab, V domains shown) VH: EVQLLESGGGLVQPGGSLRLSCAASGFTFSKYFMFWVRQAPGKGLEWVSVISPSNGMTRYADSVKGRFTISRDNSKNTLYLQMNSLRAEDTAVYYCARVGYGGNSDYWGQGTLVTVSS VL: DIQMTQSPSSVSASVGDRLTIICRASQDINRWLAWYQQTPGNAPKLLIHSATSLQSGVPSRFSGSGSGTDFTLTINSLQPEDFATYYCQQADSFPLTFGGGTKVEIK"
,0.08 fold,"XPA23 Fab, heavy chain G55Y (Fab, V domains shown) VH: EVQLLESGGGLVQPGGSLRLSCAASGFTFSKYFMFWVRQAPGKGLEWVSVISPSYGMTRYADSVKGRFTISRDNSKNTLYLQMNSLRAEDTAVYYCARVGYGGNSDYWGQGTLVTVSS VL: DIQMTQSPSSVSASVGDRLTIICRASQDINRWLAWYQQTPGNAPKLLIHSATSLQSGVPSRFSGSGSGTDFTLTINSLQPEDFATYYCQQADSFPLTFGGGTKVEIK"
no binding,,"XPA23 Fab, heavy chain F35Q (Fab, V domains shown) VH: EVQLLESGGGLVQPGGSLRLSCAASGFTFSKYFMQWVRQAPGKGLEWVSVISPSGGMTRYADSVKGRFTISRDNSKNTLYLQMNSLRAEDTAVYYCARVGYGGNSDYWGQGTLVTVSS VL: DIQMTQSPSSVSASVGDRLTIICRASQDINRWLAWYQQTPGNAPKLLIHSATSLQSGVPSRFSGSGSGTDFTLTINSLQPEDFATYYCQQADSFPLTFGGGTKVEIK"
,1.41 fold,"XPA23 Fab, heavy chain G56F (Fab, V domains shown) VH: EVQLLESGGGLVQPGGSLRLSCAASGFTFSKYFMFWVRQAPGKGLEWVSVISPSGFMTRYADSVKGRFTISRDNSKNTLYLQMNSLRAEDTAVYYCARVGYGGNSDYWGQGTLVTVSS VL: DIQMTQSPSSVSASVGDRLTIICRASQDINRWLAWYQQTPGNAPKLLIHSATSLQSGVPSRFSGSGSGTDFTLTINSLQPEDFATYYCQQADSFPLTFGGGTKVEIK"
